Measurements as given in publication PMC12084609, “Structural insights into small-molecule agonist recognition and activation of complement receptor C3aR” (The EMBO Journal, 2025).
Positions count from the first letter of the chain named. Where “and” joins values, the source holds several entries; their conditions need not be identical. Equal values may be shown once. Read-outs that look alike come from different tables or passages of the source.

How the values were obtained:
Type in all cases: cell-based
C3aR S26^1.35A = molecular target: T1, C3aR S26^1.35A (Homo sapiens, UniProt Q16581, S26A); test: GloSensor-based cAMP assay, C3aR mutant S26A; details: for Mean Diff. of pIC50, WT vs. S26A: Dunnett's multiple comparisons test, WT minus mutant; for ΔpIC50 ± SE of Diff.: S26^1.35A relative to WT C3aR; for cAMP response (% Forskolin): S261.35A
T1 construct: expressed in transfected cells; host or cells: HEK293T
T1 sequence (Q16581 1-482 S26A): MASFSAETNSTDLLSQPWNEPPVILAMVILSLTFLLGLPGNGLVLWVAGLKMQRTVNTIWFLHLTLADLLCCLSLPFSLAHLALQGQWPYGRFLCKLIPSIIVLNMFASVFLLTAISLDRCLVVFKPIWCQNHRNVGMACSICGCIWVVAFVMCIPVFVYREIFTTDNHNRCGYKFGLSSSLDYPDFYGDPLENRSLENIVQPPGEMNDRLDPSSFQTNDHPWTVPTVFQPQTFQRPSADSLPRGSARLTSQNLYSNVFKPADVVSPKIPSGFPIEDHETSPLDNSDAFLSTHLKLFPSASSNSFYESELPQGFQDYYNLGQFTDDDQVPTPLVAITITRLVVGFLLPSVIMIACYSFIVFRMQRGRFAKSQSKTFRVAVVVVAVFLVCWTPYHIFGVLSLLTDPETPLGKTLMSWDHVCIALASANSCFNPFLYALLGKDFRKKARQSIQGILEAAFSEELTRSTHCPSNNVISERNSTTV
Experimental: (§1) HEK293T cells were seeded on 6-well plates (NEST) and transfected with pGlosensor™-22F plasmids (Promega) and pcDNA3.1 plasmids encoding C3aR or its mutants an with N-terminal FLAG tag. After 48 h, cells were detached with Accutase solution (Sigma-Aldrich) and washed with PBS, and resuspended in assay buffer (CO2-independent medium with 0.5 mg mL^−1D-luciferin). 100,000–200,000 cells were seeded on 96-well white bottom plates (SPL) and incubated at 37 °C for 45 min followed by 45 min incubation at room temperature. After 90 min of incubation, basal luminescence signals were recorded. In total, 25 μl of test ligand with various concentrations and 1 μM Forskolin (Sigma-Aldrich) were treated to the cells and luminescence signals were measured by Tristar 2 LB 942 multimode reader (Berthold). […] Relative luminescence unit (%) was calculated with the signal of wells treated with vehicle as 0% and the signal of wells treated with 1 μM Forskolin as 100% (DiRaddo et al, [2014]). Nonlinear regression was performed using a three-parameter logistic equation.

C3aR V103^3.33A = molecular target: T2, C3aR V103^3.33A (Homo sapiens, UniProt Q16581, V103A); test: GloSensor-based cAMP assay, C3aR mutant V103A; details: for Mean Diff. of pIC50, WT vs. V103A: Dunnett's multiple comparisons test, WT minus mutant; for cAMP response (% Forskolin): single replicates; for ΔpIC50 ± SE of Diff.: V103^3.33A relative to WT C3aR
T2 construct: expressed in transfected cells; host or cells: HEK293T
T2 sequence (Q16581 1-482 V103A): T1 sequence (Q16581 1-482 S26A) with A26S, V103A
Experimental: as §1

C3aR M106^3.36A = molecular target: T3, C3aR M106^3.36A (Homo sapiens, UniProt Q16581, M106A); test: GloSensor-based cAMP assay, C3aR mutant M106A; details: for Mean Diff. of pIC50, WT vs. M106A: Dunnett's multiple comparisons test, WT minus mutant; for cAMP response (% Forskolin): single replicates; for ΔpIC50 ± SE of Diff.: M106^3.36A relative to WT C3aR
T3 construct: expressed in transfected cells; host or cells: HEK293T
T3 sequence (Q16581 1-482 M106A): T1 sequence (Q16581 1-482 S26A) with A26S, M106A
Experimental: as §1

C3a: anaphylatoxin C3a, natural peptide ligand of C3aR (a 77-amino acid peptide), Sigma-Aldrich
Mean Diff. of pIC50, WT vs. S26A (C3aR S26^1.35A): 0.018
ΔpIC50 ± SE of Diff. (C3aR S26^1.35A): -0.018 ± 0.007
IC50 (C3aR S26^1.35A; S26^1.35A, dose-response plot, read-out: IC50): 2.4 nM
pIC50 (Replicate) (C3aR S26^1.35A; S26^1.35A, individual replicates): 8.46 and 8.90 and 8.92 and 8.44
pIC50 ± SEM (Mean) (C3aR S26^1.35A; S26^1.35A, mean of independent experiments): 8.68
cAMP response (% Forskolin) (C3aR S26^1.35A; Log[C3a (M)] -7, single replicates): 6.63 % Forskolin and 16.74 % Forskolin and 7.89 % Forskolin and 6.95 % Forskolin
cAMP response (% Forskolin) (C3aR S26^1.35A; Log[C3a (M)] -8, single replicates): 10.18 % Forskolin and 21.44 % Forskolin and 11.61 % Forskolin and 10.34 % Forskolin
cAMP response (% Forskolin) (C3aR S26^1.35A; Log[C3a (M)] -9, single replicates): 93.63 % Forskolin and 62.67 % Forskolin and 56.93 % Forskolin and 99.13 % Forskolin
cAMP response (% Forskolin) (C3aR S26^1.35A; Log[C3a (M)] -10, single replicates): 100.97 % Forskolin and 93.52 % Forskolin and 93.48 % Forskolin and 106.03 % Forskolin
cAMP response (% Forskolin) (C3aR S26^1.35A; Log[C3a (M)] -11, single replicates): 99.94 % Forskolin and 102.62 % Forskolin and 98.56 % Forskolin and 106.48 % Forskolin
cAMP response (% Forskolin) (C3aR S26^1.35A; Log[C3a (M)] -12, single replicates): 101.64 % Forskolin and 96.07 % Forskolin and 97.79 % Forskolin and 99.89 % Forskolin
Mean Diff. of pIC50, WT vs. V103A (C3aR V103^3.33A): 0.086
cAMP response (% Forskolin) (C3aR V103^3.33A; V103A, Log[C3a (M)] -7): 16.81 % Forskolin and 17.64 % Forskolin and 16.37 % Forskolin
cAMP response (% Forskolin) (C3aR V103^3.33A; V103A, Log[C3a (M)] -8): 18.63 % Forskolin and 17.74 % Forskolin and 17.49 % Forskolin
cAMP response (% Forskolin) (C3aR V103^3.33A; V103A, Log[C3a (M)] -9): 66.34 % Forskolin and 67.98 % Forskolin and 37.55 % Forskolin
cAMP response (% Forskolin) (C3aR V103^3.33A; V103A, Log[C3a (M)] -10): 87.50 % Forskolin and 90.87 % Forskolin and 75.99 % Forskolin
cAMP response (% Forskolin) (C3aR V103^3.33A; V103A, Log[C3a (M)] -11): 101.77 % Forskolin and 100.57 % Forskolin and 97.94 % Forskolin
cAMP response (% Forskolin) (C3aR V103^3.33A; V103A, Log[C3a (M)] -12): 105.75 % Forskolin and 100.95 % Forskolin and 97.98 % Forskolin
ΔpIC50 ± SE of Diff. (C3aR V103^3.33A): -0.09 ± 0.05
IC50 (C3aR V103^3.33A; V103^3.33A, dose-response plot, read-out: IC50): 3.53 nM
pIC50 (Replicate) (C3aR V103^3.33A; V103^3.33A, individual replicates): 8.49 and 8.72 and 8.44 and 8.20
pIC50 ± SEM (Mean) (C3aR V103^3.33A; V103^3.33A, mean of independent experiments): 8.46
cAMP response (% Forskolin) (C3aR V103^3.33A; V1033.33A, Log[C3a (M)] -7): 19.41 % Forskolin and 19.52 % Forskolin and 19.42 % Forskolin and 22.72 % Forskolin
cAMP response (% Forskolin) (C3aR V103^3.33A; V1033.33A, Log[C3a (M)] -8): 24.04 % Forskolin and 22.92 % Forskolin and 25.51 % Forskolin and 44.96 % Forskolin
cAMP response (% Forskolin) (C3aR V103^3.33A; V1033.33A, Log[C3a (M)] -9): 89.16 % Forskolin and 71.89 % Forskolin and 87.77 % Forskolin and 103.75 % Forskolin
cAMP response (% Forskolin) (C3aR V103^3.33A; V1033.33A, Log[C3a (M)] -10): 100.58 % Forskolin and 94.90 % Forskolin and 95.96 % Forskolin and 103.23 % Forskolin
cAMP response (% Forskolin) (C3aR V103^3.33A; V1033.33A, Log[C3a (M)] -11): 100.23 % Forskolin and 96.38 % Forskolin and 92.81 % Forskolin and 102.90 % Forskolin
cAMP response (% Forskolin) (C3aR V103^3.33A; V1033.33A, Log[C3a (M)] -12): 97.59 % Forskolin and 96.90 % Forskolin and 93.29 % Forskolin and 103.97 % Forskolin
Mean Diff. of pIC50, WT vs. M106A (C3aR M106^3.36A): 0.034
cAMP response (% Forskolin) (C3aR M106^3.36A; M106A, Log[C3a (M)] -7): 8.75 % Forskolin and 12.90 % Forskolin and 9.09 % Forskolin
cAMP response (% Forskolin) (C3aR M106^3.36A; M106A, Log[C3a (M)] -8): 9.11 % Forskolin and 12.58 % Forskolin and 9.15 % Forskolin
cAMP response (% Forskolin) (C3aR M106^3.36A; M106A, Log[C3a (M)] -9): 42.52 % Forskolin and 48.08 % Forskolin and 24.26 % Forskolin
cAMP response (% Forskolin) (C3aR M106^3.36A; M106A, Log[C3a (M)] -10): 70.86 % Forskolin and 84.09 % Forskolin and 59.73 % Forskolin
cAMP response (% Forskolin) (C3aR M106^3.36A; M106A, Log[C3a (M)] -11): 100.00 % Forskolin and 94.62 % Forskolin and 93.38 % Forskolin
cAMP response (% Forskolin) (C3aR M106^3.36A; M106A, Log[C3a (M)] -12): 103.69 % Forskolin and 97.63 % Forskolin and 101.57 % Forskolin
ΔpIC50 ± SE of Diff. (C3aR M106^3.36A): -0.03 ± 0.03
pIC50 (Replicate) (C3aR M106^3.36A; M106^3.36A, individual replicates): 8.59 and 8.68 and 8.47 and 8.31
cAMP response (% Forskolin) (C3aR M106^3.36A; M1063.36A, Log[C3a (M)] -7): 12.14 % Forskolin and 11.95 % Forskolin and 11.63 % Forskolin and 13.11 % Forskolin
cAMP response (% Forskolin) (C3aR M106^3.36A; M1063.36A, Log[C3a (M)] -8): 15.30 % Forskolin and 16.36 % Forskolin and 17.61 % Forskolin and 30.65 % Forskolin
cAMP response (% Forskolin) (C3aR M106^3.36A; M1063.36A, Log[C3a (M)] -9): 79.42 % Forskolin and 72.88 % Forskolin and 85.10 % Forskolin and 95.05 % Forskolin
cAMP response (% Forskolin) (C3aR M106^3.36A; M1063.36A, Log[C3a (M)] -10): 93.61 % Forskolin and 101.94 % Forskolin and 98.48 % Forskolin and 102.99 % Forskolin
cAMP response (% Forskolin) (C3aR M106^3.36A; M1063.36A, Log[C3a (M)] -11): 97.40 % Forskolin and 101.43 % Forskolin and 95.22 % Forskolin and 99.89 % Forskolin
cAMP response (% Forskolin) (C3aR M106^3.36A; M1063.36A, Log[C3a (M)] -12): 100.17 % Forskolin and 94.23 % Forskolin and 92.07 % Forskolin and 95.27 % Forskolin

Cc1cc(C(c2ccc(Cl)cc2)c2ccc(Cl)cc2)sc1C(=O)N[C@@H](CCCNC(=N)N)C(=O)O [JR14a, reference compound]
Mean Diff. of pIC50, WT vs. S26A (C3aR S26^1.35A): -0.137
IC50 (C3aR S26^1.35A; IC50, S26^1.35A, dose-response plot): 5.58 nM
remaining activity at 1 µM (C3aR S26^1.35A; S26A, Log[JR14a (M)] -6, single replicates, read-out: cAMP response (% Forskolin)): 7.75%
remaining activity at 0.1 µM (C3aR S26^1.35A; S26A, Log[JR14a (M)] -7, single replicates, read-out: cAMP response (% Forskolin)): 8.58%
remaining activity at 0.0001 µM (C3aR S26^1.35A; S26A, Log[JR14a (M)] -10, single replicates, read-out: cAMP response (% Forskolin)): 91.9%
remaining activity at 10 pM (C3aR S26^1.35A; S26A, Log[JR14a (M)] -11, single replicates, read-out: cAMP response (% Forskolin)): 96.7%
ΔpIC50 ± SE of Diff. (C3aR S26^1.35A): 0.14 ± 0.07
IC50 (C3aR S26^1.35A; pIC50 (Replicate), S26^1.35A, individual replicates): 1.62 nM and 4.57 nM and 7.41 nM
IC50 (C3aR S26^1.35A; pIC50 ± SEM (Mean), S26^1.35A, mean of independent experiments): 3.8 nM
Mean Diff. of pIC50, WT vs. V103A (C3aR V103^3.33A): 0.201
IC50 (C3aR V103^3.33A; IC50, V103^3.33A, dose-response plot): 8.93 nM
ΔpIC50 ± SE of Diff. (C3aR V103^3.33A): -0.20 ± 0.05
IC50 (C3aR V103^3.33A; pIC50 (Replicate), V103^3.33A, individual replicates): 12.9 nM and 14.8 nM and 3.02 nM
IC50 (C3aR V103^3.33A; pIC50 ± SEM (Mean), V103^3.33A, mean of independent experiments): 8.32 nM
Mean Diff. of pIC50, WT vs. M106A (C3aR M106^3.36A): -0.207
IC50 (C3aR M106^3.36A; IC50, M106^3.36A, dose-response plot): 3.24 nM
ΔpIC50 ± SE of Diff. (C3aR M106^3.36A): 0.21 ± 0.09
IC50 (C3aR M106^3.36A; pIC50 (Replicate), M106^3.36A, individual replicates): 3.63 nM and 7.41 nM and 1.29 nM
